Results taken from US20180271992A1.

B1: hRS7-CL2-SN-38 antibody-drug conjugate (antibody, INN chains, looked up, V domains shown)
VH: QVQLQQSGSELKKPGASVKVSCKASGYTFTNYGMNWVKQAPGQGLKWMGWINTYTGEPTYTDDFKGRFAFSLDTSVSTAYLQISSLKADDTAVYFCARGGFGSSYWYFDVWGQGSLVTVSS
VL: DIQLTQSPSSLSASVGDRVSITCKASQDVSIAVAWYQQKPGKAPKLLIYSASYRYTGVPDRFSGSGSGTDFTLTISSLQPEDFAVYYCQQHYITPLTFGAGTKVEIK
modifications: SN-38 via CL2 linker

Assays:
human Trop-2 (human) [1] = target: human Trop-2 (human) (UniProt P09758); assay: cell binding on NCI-N87 cells, anti-mouse-HRP secondary, luminescence
Chain of human Trop-2 (human) (P09758 27-323): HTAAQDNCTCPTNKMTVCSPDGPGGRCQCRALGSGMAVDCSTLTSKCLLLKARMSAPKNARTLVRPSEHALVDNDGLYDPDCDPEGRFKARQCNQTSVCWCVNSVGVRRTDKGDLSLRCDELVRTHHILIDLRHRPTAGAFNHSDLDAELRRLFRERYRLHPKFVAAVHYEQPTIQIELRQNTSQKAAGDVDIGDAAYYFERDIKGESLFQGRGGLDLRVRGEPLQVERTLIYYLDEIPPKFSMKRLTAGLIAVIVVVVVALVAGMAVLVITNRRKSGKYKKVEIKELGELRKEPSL

human Trop-2 (human) [2] = target: human Trop-2 (human) (UniProt P09758); assay: cell binding on NCI-N87 cells, maximum binding compared to murine RS7
human Trop-2 (human) [3] = target: human Trop-2 (human) (UniProt P09758); assay: cell binding assay on Trop-2 expressing cells, cell line not named

Molecule	BMax (maximum binding) (relative luminescent units) (human Trop-2 (human) [1])	reduction of maximum binding relative to RS7 (human Trop-2 (human) [2]) [%]	Kd (human Trop-2 (human) [1]) [nM]	Kd (human Trop-2 (human) [3]) [nM]
162-46.2 murine monoclonal antibody against human Trop-2	8470	25	–	–
MAB650 murine monoclonal antibody against human Trop-2	6020	50	0.49	–
hRS7-CL2A-SN-38 antibody-drug conjugate	–	–	–	1.2
B1	–	–	–	1.2
